The values that follow are results of earlier work, collected in article PMC6716794.

As usually defined, the Kd is the concentration at which binding is half-saturated.

One data set deals with thrombin ABE I (UniProt P00734). The data set is described as follows: NMR.
The next data set has as its target Thrombin (Homo sapiens) (UniProt P00734).
The target of a further data set is thrombin ABE II (UniProt P00734).

Sequence of PAR3GEL (O00254 39-374): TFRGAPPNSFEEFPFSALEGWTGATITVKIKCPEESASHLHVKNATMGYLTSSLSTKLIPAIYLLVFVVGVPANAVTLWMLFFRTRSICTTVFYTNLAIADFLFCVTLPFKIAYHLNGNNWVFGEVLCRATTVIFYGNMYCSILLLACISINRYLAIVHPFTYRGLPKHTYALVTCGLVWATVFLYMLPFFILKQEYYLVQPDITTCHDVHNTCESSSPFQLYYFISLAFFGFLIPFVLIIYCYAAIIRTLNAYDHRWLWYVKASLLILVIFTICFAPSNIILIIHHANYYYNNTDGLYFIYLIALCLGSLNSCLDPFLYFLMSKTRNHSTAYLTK

In the case of PAR3GEL (from UniProt O00254), the Kd in the data set with thrombin ABE I is 47000 nM.

Turning to GpIbα 269-286 (from UniProt P07359), the Kd with Thrombin (Homo sapiens) and with thrombin ABE II was 5.9 nM in each case.
